According to the supplement of paper PMC11246515:
± gives the standard deviation of the averaged measurements.

Assay: total protein half-life in vivo (active degradation + dilution); higher = more stable protein
[1] = E. coli NCM3722 delta-clpP delta-lon delta-hslV, growth: N-lim chemostat, doubling time 6 h
[2] = E. coli NCM3722 delta-clpP, growth: N-lim chemostat, doubling time 6 h
[3] = E. coli NCM3722 delta-hslV, growth: N-lim chemostat, doubling time 6 h
[4] = E. coli NCM3722 delta-lon, growth: N-lim chemostat, doubling time 6 h
[5] = E. coli NCM3722 delta-smpB, growth: N-lim chemostat, doubling time 6 h
[6] = wild type E. coli NCM3722, growth: C-lim chemostat, doubling time 3 h
[7] = wild type E. coli NCM3722, growth: C-lim chemostat, doubling time 6 h
[8] = wild type E. coli NCM3722, growth: C-lim chemostat, doubling time 12 h
[9] = wild type E. coli NCM3722, growth: N-lim chemostat, doubling time 6 h
[10] = wild type E. coli NCM3722, growth: N-lim chemostat, doubling time 12 h
[11] = wild type E. coli NCM3722, growth: P-lim chemostat, doubling time 6 h
[12] = wild type E. coli NCM3722, growth: P-lim chemostat, doubling time 12 h

Sequence	total protein half-life in vivo [1]	total protein half-life in vivo [2]	total protein half-life in vivo [3]	total protein half-life in vivo [4]	total protein half-life in vivo [5]	total protein half-life in vivo [6]	total protein half-life in vivo [7]	total protein half-life in vivo [8]	total protein half-life in vivo [9]	total protein half-life in vivo [10]	total protein half-life in vivo [11]	total protein half-life in vivo [12]
MKQYLELMQKVLDEGTQKNDRTGTGTLSIFGHQMRFNLQDGFPLVTTKRCHLRSIIHELLWFLQGDTNIAYLHENNVTIWDEWADENGDLGPVYGKQWRAWPTPDGRHIDQITTVLNQLKNDPDSRRIIVSAWNVGELDKMALAPCHAFFQFYVADGKLSCQLYQRSCDVFLGLPFNIASYALLVHMMAQQCDLEVGDFVWTGGDTHLYSNHMDQTHLQLSREPRPLPKLIIKRKPESIFDYRFEDFEIEGYDPHPGIKAPVAI [P0A884]	4.71 ± 0.41 h	4.939 ± 0.04 h	4.26 ± 0.21 h	4.54 ± 0.25 h	4.48 ± 0.38 h	3.23 ± 0.11 h	5.59 ± 0.4 h	10.3 ± 0.11 h	4.62 ± 0.15 h	7.94 ± 0.4 h	5.65 ± 0.14 h	10.4 ± 2.7 h
MSKTIATENAPAAIGPYVQGVDLGNMIITSGQIPVNPKTGEVPADVAAQARQSLDNVKAIVEAAGLKVGDIVKTTVFVKDLNDFATVNATYEAFFTEHNATFPARSCVEVARLPKDVKIEIEAIAVRR [P0AF93]	6.26 ± 0.82 h	5.12 ± 0.65 h	5.28 ± 0.082 h	5.91 ± 0.21 h	5.15 ± 0.68 h	3.16 ± 0.28 h	5.56 ± 0.15 h	10.8 ± 1.1 h	4.88 ± 0.16 h	8.99 ± 0.37 h	5.694 ± 0.0093 h	12.8 ± 0.61 h
MANYFNTLNLRQQLAQLGKCRFMGRDEFADGASYLQGKKVVIVGCGAQGLNQGLNMRDSGLDISYALRKEAIAEKRASWRKATENGFKVGTYEELIPQADLVINLTPDKQHSDVVRTVQPLMKDGAALGYSHGFNIVEVGEQIRKDITVVMVAPKCPGTEVREEYKRGFGVPTLIAVHPENDPKGEGMAIAKAWAAATGGHRAGVLESSFVAEVKSDLMGEQTILCGMLQAGSLLCFDKLVEEGTDPAYAEKLIQFGWETITEALKQGGITLMMDRLSNPAKLRAYALSEQLKEIMAPLFQKHMDDIISGEFSSGMMADWANDDKKLLTWREETGKTAFETAPQYEGKIGEQEYFDKGVLMIAMVKAGVELAFETMVDSGIIEESAYYESLHELPLIANTIARKRLYEMNVVISDTAEYGNYLFSYACVPLLKPFMAELQPGDLGKAIPEGAVDNGQLRDVNEAIRSHAIEQVGKKLRGYMTDMKRIAVAG	3.97 ± 0.51 h	3.59 ± 0.64 h	3.31 ± 0.22 h	3.72 ± 0.042 h	3.46 ± 0.06 h	3.035 ± 0.013 h	5.6 ± 0.11 h	10.3 ± 0.33 h	3.472 ± 0.017 h	5.36 ± 0.15 h	5.67 ± 0.26 h	11.9 ± 0.2 h
MADKKLDTQLVNAGRSKKYTLGAVNSVIQRASSLVFDSVEAKKHATRNRANGELFYGRRGTLTHFSLQQAMCELEGGAGCVLFPCGAAAVANSILAFIEQGDHVLMTNTAYEPSQDFCSKILSKLGVTTSWFDPLIGADIVKHLQPNTKIVFLESPGSITMEVHDVPAIVAAVRSVVPDAIIMIDNTWAAGVLFKALDFGIDVSIQAATKYLVGHSDAMIGTAVCNARCWEQLRENAYLMGQMVDADTAYITSRGLRTLGVRLRQHHESSLKVAEWLAEHPQVARVNHPALPGSKGHEFWKRDFTGSSGLFSFVLKKKLNNEELANYLDNFSLFSMAYSWGGYESLILANQPEHIAAIRPQGEIDFSGTLIRLHIGLEDVDDLIADLDAGFARIV	4.64 ± 0.42 h	4.43 ± 0.49 h	3.95 ± 0.2 h	6.18 ± 0.7 h	4.33 ± 0.2 h	3.36 ± 0.33 h	4.76 ± 1.1 h	9.28 ± 0.72 h	4.28 ± 0.085 h	–	6.1 ± 0.46 h	12.1 ± 1.6 h
MDRDQTNSSLFNDDPVLHATWLYYQEGKSQTEVAAIMGVSRVTVVKYLQTARENGLVHINLDVNVFGSIDAALQIRDKFNLQRVIIVPDGEHAGKRDDTKLMRTRLSRAGGMYLNQVIENGDVLGVAWGRTIHQMSKTMTPKSCKNVTVIQMLGSMPSQPDLTIIESSSQIAYKLSGRVASLHVPAVVSSARLAMELQAEPIIRSNFDVLTRCTKAFFVVGNALDENPLIRVGVLNKKEMQTYRDLGAVGVICGRFYDKEGMPVVADVDQRILGISLAQLRQIERKIFLAGGERGYDATLGALLGGYVTDLIVDEGTAEFLLACELPH	7.27 ± 0.75 h	6.31 ± 0.21 h	6.85 ± 0.93 h	6.37 ± 0.93 h	5.92 ± 0.29 h	3.03 ± 0.26 h	6.27 ± 0.17 h	11.5 ± 2.3 h	5.82 ± 0.46 h	11.9 ± 0.26 h	5.93 ± 0.12 h	12 ± 0.53 h
MEIIMRNLCFLLTLVATLLLPGRLIAAALPQDEKLITGQLDNGLRYMIYPHAHPKDQVNLWLQIHTGSLQEEDNELGVAHFVEHMMFNGTKTWPGNKVIETFESMGLRFGRDVNAYTSYDETVYQVSLPTTQKQNLQQVMAIFSEWSNAATFEKLEVDAERGVITEEWRAHQDAKWRTSQARRPFLLANTRNLDREPIGLMDTVATVTPAQLRQFYQRWYQPNNMTFIVVGDIDSKEALALIKDNLSKLPANKAAENRVWPTKAENHLRFNIINDKENRVNGIALYYRLPMVQVNDEQSFIEQAEWSMLVQLFNQRLQERIQSGELKTISGGTARSVKIAPDYQSLFFRVNARDDNMQDAANALMAELATIDQHGFSAEELDDVKSTRLTWLKNAVDQQAERDLRMLTSRLASSSLNNTPFLSPEETYQLSKRLWQQITVQSLAEKWQQLRKNQDAFWEQMVNNEVAAKKALSPAAILALEKEYANKKLAAYVFPGRNLSLTVDADPQAEISSKETLAENLTSLTLSNGARVILAKSAGEEQKLQIIAVSNKGDLSFPAQQKSLIALANKAVSGSGVGELSSSSLKRWSAENSVTMSSKVSGMNTLLSVSARTNNPEPGFQLINQRITHSTINDNIWASLQNAQIQALKTLDQRPAEKFAQQMYETRYADDRTKLLQENQIAQFTAADALAADRQLFSSPADITFVIVGNVAEDKLVALITRYLGSIKHSDSPLAAGKPLTRATDNASVTVKEQNEPVAQVSQWKRYDSRTPVNLPTRMALDAFNVALAKDLRVNIREQASGAYSVSSRLSVDPQAKDISHLLAFTCQPERHDELLTLANEVMVKRLAKGISEQELNEYQQNVQRSLDIQQRSVQQLANTIVNSLIQYDDPAAWTEQEQLLKQMTVENVNTAVKQYLSHPVNTYTGVLLPK	4.62 ± 0.69 h	5.77 ± 0.74 h	4.77 ± 1.3 h	5.5 h	4.55 ± 0.17 h	2.905 ± 0.0097 h	5.9 ± 0.39 h	10.2 ± 0.87 h	5.41 ± 0.45 h	9.96 ± 0.61 h	4.84 ± 0.2 h	9.3 ± 0.6 h
